Here are results for 1 substance from paper PMC10539301.

In this experiment the target is ATAD2 Walker B mutant (E532Q), aa 403-1390 (human) (UniProt Q6PL18).
Chain of ATAD2 Walker B mutant (E532Q), aa 403-1390 (human) (Q6PL18 403-1390 E532Q): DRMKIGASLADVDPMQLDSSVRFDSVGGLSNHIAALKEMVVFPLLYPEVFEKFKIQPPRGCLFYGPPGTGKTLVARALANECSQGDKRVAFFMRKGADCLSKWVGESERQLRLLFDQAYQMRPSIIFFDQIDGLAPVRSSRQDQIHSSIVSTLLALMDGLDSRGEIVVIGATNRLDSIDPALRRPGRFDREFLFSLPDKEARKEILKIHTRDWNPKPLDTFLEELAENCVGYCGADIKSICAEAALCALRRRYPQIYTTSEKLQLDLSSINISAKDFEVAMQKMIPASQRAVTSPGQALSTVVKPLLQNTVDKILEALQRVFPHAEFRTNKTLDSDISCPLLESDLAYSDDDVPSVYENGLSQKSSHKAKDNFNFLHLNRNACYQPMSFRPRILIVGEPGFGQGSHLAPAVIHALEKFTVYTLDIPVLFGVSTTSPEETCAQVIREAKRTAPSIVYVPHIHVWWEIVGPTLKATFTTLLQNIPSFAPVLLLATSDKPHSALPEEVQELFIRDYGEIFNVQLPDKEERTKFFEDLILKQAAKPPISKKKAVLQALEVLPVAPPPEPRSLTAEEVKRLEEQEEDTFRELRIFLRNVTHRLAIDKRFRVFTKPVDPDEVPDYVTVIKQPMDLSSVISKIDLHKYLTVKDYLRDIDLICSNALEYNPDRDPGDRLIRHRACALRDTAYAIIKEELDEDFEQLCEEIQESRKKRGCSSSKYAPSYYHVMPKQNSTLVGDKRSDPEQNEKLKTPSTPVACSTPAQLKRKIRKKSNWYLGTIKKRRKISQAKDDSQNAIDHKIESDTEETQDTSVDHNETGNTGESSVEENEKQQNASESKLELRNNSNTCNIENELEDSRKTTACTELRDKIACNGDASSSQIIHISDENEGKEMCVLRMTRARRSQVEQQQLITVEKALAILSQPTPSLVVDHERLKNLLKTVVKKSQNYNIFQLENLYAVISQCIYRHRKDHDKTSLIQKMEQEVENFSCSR

Substance “Histone H3/H4 complex (X. laevis, wild type, refolded) (from UniProt P84233 1-136; P62799 1-103)” registered an HS-AFM: increase of the frequency of symmetry breaking of the ATAD2 Walker B hexameric ring (events per ring or per cumulative observation time) with H3/H4 of 40%; an HS-AFM: reversibility of symmetry breaking of the ATAD2 Walker B hexameric ring, without and with H3/H4 of 30%.
